Here are results for 3 molecules from US20210269549A1, “ANTI-SAS1B ANTIBODIES, ASSOCIATED METHODS OF USE, AND COMPOSITIONS AND METHODS FOR DETECTING AND TREATING CANCER” (UNIVERSITY OF VIRGINIA PATENT FOUNDATION, priority 2015, published 2021).

For test [1], the system named is human uterine cancer cells (MMMT539). In words: Antibody drug conjugate cytotoxicity (ADC) assay, MMMT539. Conditions: FIG. 3A-B. It is filed as cell-based. On the procedure:
The cytotoxic effect of anti-human SAS1B mAbs SB2 and SB5 on human uterine cancer cells (MMMT539) was examined by antibody drug conjugate cytotoxicity (ADC) assay. Human uterine cancer cells MMMT539 were seeded in triplicate on 96 well plate overnight and then treated with SB2 or SB5 and anti-mouse Fab-cleavable-Duocarmycin complex for ˜90 h. The presence of viable live cells per well was measured by total cellular ATP content in relative luminescence unit (RLU). Viability of control live cells (100%) was determined from average of 9 wells in terms of total cellular ATP (in RLU) containing the constant 15 nM Fab-CL-DMDM for each set of antibody/reagent. […] Staurosporine, a general protein kinase inhibitor, was used to induce apoptosis in 1% DMSO as a positive control for the assay.

The target in test [2] is T1, human SAS1B (Homo sapiens, UniProt Q6HA08).
T1 construct: made in house; host or cells: E. coli
T1 sequence (Q6HA08 24-431): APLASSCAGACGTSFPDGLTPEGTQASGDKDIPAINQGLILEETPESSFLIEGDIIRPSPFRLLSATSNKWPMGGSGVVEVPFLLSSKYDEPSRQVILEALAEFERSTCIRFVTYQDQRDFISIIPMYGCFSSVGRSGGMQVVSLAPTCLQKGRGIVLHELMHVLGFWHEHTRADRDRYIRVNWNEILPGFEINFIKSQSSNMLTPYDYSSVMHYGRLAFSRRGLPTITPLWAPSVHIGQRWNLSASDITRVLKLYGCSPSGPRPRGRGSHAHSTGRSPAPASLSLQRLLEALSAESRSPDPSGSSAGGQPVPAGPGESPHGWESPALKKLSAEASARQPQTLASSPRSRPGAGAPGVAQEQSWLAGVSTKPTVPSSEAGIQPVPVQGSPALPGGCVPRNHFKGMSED
Kind of test: Western blot of human SAS1B probed with anti-human SAS1B murine mAbs. The test is classed as binding. Particulars: for Specifically binds human SAS1B (and not mouse SAS1B): Table 1. From the text:
A western blot of human SAS1B and mouse SAS1B was probed with anti-human SAS1B murine monoclonal antibodies SB1, SB2, SB3, SB4, SB5, SB6, and SB7.

In test [3] the target is T2, full-length SAS1B splice variant A polypeptide (Homo sapiens, UniProt Q6HA08).
T2 construct: made in house
T2 sequence (Q6HA08 24-431): T1 sequence (Q6HA08 24-431)
In words: Western blot with mammalian cell-expressed recombinant SAS1B, full length. It is filed as binding. Here is the method:
(§1) SAS1B monoclonal antibodies were analyzed with mammalian cell-expressed recombinant SAS1B by western blotting.
For orientation: Immunoblotting shows a protein as a band on a membrane.

Test [4] addresses T3, SAS1B extracellular domain (aa 164-431) polypeptide (Homo sapiens, UniProt Q6HA08).
T3 construct: SAS1B extracellular domain (aa 164-431) polypeptide; made in house
T3 sequence (Q6HA08 164-431): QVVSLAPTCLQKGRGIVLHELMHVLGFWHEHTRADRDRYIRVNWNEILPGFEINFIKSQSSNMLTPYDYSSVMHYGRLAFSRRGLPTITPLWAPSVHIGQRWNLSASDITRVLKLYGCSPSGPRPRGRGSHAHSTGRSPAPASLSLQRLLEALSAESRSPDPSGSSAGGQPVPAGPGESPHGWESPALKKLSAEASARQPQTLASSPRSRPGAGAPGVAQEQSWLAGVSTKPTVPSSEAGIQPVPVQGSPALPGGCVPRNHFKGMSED
In words: Western blot with mammalian cell-expressed recombinant SAS1B, extracellular domain. The test is classed as binding. Here is the method:
as §1

Test [5] concerns the target T4, human SAS1B protein with a C-terminal V5 tag expressed by HEK293T cells (Homo sapiens, UniProt Q6HA08).
T4 construct: expressed in transfected cells; host or cells: HEK293T
T4 sequence (Q6HA08 24-431): T1 sequence (Q6HA08 24-431)
In words: Double immunofluorescence on fixed and permeabilized HEK293T cells transfected with SAS1B SV-A with V5 tag. It is filed as cell-based. Particulars: for IF signal / colocalization with V5-tag epitope signal: SV-A transfected HEK293T, PFA fixed, methanol permeabilized, mAbs at 10 ug/ml. Here is the method: Experiments were conducted to determine the specificity of anti-human SAS1B monoclonal antibodies SB1, SB2, SB3, SB4, SB5, SB6 and SB7 against the human SAS1B protein with a C-terminal V5 tag expressed by HEK293T cells by double immuno-fluorescence from two different SAS1B epitopes. HEK293T cells were seeded at ˜100,000 per well of a 24 well plate containing a lysine-coated 12 mm coverslip. 24 hours later, the cells were transfected with 1 ug of SV-A plasmid with 2 ul of TURBOFECT® transfection reagent followed by no change of media. 48 h later the cells were PFA (paraformaldehyde) fixed and methanol permeabilized for an IF study as follows.
The cells were removed from cell culture media and fixed in 4% PFA in PBS, 300 ul for 15 min. The cells were washed in 1 ml PBS in wells for 3 times and permeabilized in methanol (100%) for 15 min in 0.5 ml at RT. The cells were washed in PBS 1 ml for 3 times and blocked in complete culture media (DMEM) with 5% normal goat serum (NGS) for 30 min (i.e. BB, blocking buffer). The first antibody in BB was added for 1 h at 10 ug/ml for mouse monoclonal antibodies (SB1, SB2, SB3, SB4, SB5, SB6, SB7) and 5 ug/ml for anti-V5 DYLIGHT® 488 (green) rabbit (a rabbit polyclonal antibody to V5 tag). The cells were washed in PBS 3 times. The second antibody in BB (Goat anti-mouse Alexa Flour 594, red) was added for 1 h at 5 ug/ml (1:200 dilution). The cells were washed in PBS 3 times. The cells were mounted in slow fade DAPI 3 ul and stored at 4° C. before confocal imaging.

Regarding `CN[C@@H]1C[C@H]2O[C@@](C)([C@@H]1OC)n1c3ccccc3c3c4c(c5c6ccccc6n2c5c31)C(=O)NC4` [Staurosporine, reference compound], the “Cell killing” value in test [1] is given as “killed the cancer cells in a dose dependent manner”.

B1: SB6: mouse anti-human SAS1B monoclonal antibody, IgG2b; VH SEQ ID NO:16, VL SEQ ID NO:18 (antibody, listed as Mus musculus, V domains shown)
VH: EVQLQQSGPELVKPGSSVKISCKPSGYTFTDYNMVWMKQSHGKSLEWIGAINPNNGGTTYNQKFKGKATLTVDKSSSTAYMELRSLTSEDSAVYYCAPNWDWFAYWGQGTLVTVSA
VL: DVLMTQIPLSLPVSLGDQASISCRSSQSILHSNGNTYLEWYLQKPGQSPKLLIYKVSNRFSGVPDRFSGSGSGTDFTLKISRVEAEDLGVYYCFQGSHVPFTFGSGTKLEIK
Consider B1, for which, in test [2], the “Reactivity on western blot of human SAS1B and mouse SAS1B” value was “specific to the human SAS1B only”; the “Specificity in western blot for human SAS1B antigen in an E. coli protein background” value is listed as “demonstrated specificity”; the “Specifically binds human SAS1B (and not mouse SAS1B)” value was “Yes”. Moreover, the “Reaction with full-length SAS1B splice variant A polypeptide” value in test [3] was “reacted with the full-length SAS1B splice variant A polypeptide”. The “Reaction with SAS1B extracellular domain (aa 164-431) polypeptide” value in test [4] is listed as “none of the them reacted”. For the same molecule, in test [5], the “IF signal / colocalization with V5-tag epitope signal” value is reported as “colocalize (merge) with V5-tag epitope signal” and the “Signal on mock transfected HEK293T cells” value is “no V5 signal or SAS1B signal”.

B2: SB7: mouse anti-human SAS1B monoclonal antibody, IgG2b; VH SEQ ID NO:16, VL SEQ ID NO:18 (antibody, listed as Mus musculus, V domains shown)
VH: B1 VH
VL: B1 VL
Consider B2, for which, in test [2], the “Reactivity on western blot of human SAS1B and mouse SAS1B” value is “specific to the human SAS1B only”; the “Specificity in western blot for human SAS1B antigen in an E. coli protein background” value was “demonstrated specificity”; the “Specifically binds human SAS1B (and not mouse SAS1B)” value is recorded as “Yes”. Also, the “Reaction with full-length SAS1B splice variant A polypeptide” value in test [3] was “reacted with the full-length SAS1B splice variant A polypeptide”. In addition, in test [4], the “Reaction with SAS1B extracellular domain (aa 164-431) polypeptide” value was “none of the them reacted”. Moreover, in test [5], the “IF signal / colocalization with V5-tag epitope signal” value is “colocalize (merge) with V5-tag epitope signal” and the “Signal on mock transfected HEK293T cells” value is “no V5 signal or SAS1B signal”.
